The results in this text go back to patent US10501502B2, “Allophycocyanin alpha-subunit evolved labeling proteins (smURFPs)” (The Regents of the University of California, priority 2016, dated 2019).

Data set [1] relates to PC3 cells. Nature of the data set: Photobleaching FP or FP fusions in mammalian cells. Format: cell-based. The following applies: for t50%, time to bleach for 50% emission intensity / A1, Double Exportential Decay Fit / A2, Double Exportential Decay Fit / A, Single Exponential Decay Fit / k1, Double Exportential Decay Fit / k2, Double Exportential Decay Fit / k, Single Exponential Decay Fit: PC3 cells; for t50%, time to bleach for 50% emission intensity: 25 μM BV or 1 μM BVMe2 for 4 h; for A1, Double Exportential Decay Fit / A2, Double Exportential Decay Fit / A, Single Exponential Decay Fit / k1, Double Exportential Decay Fit / k2, Double Exportential Decay Fit / k, Single Exponential Decay Fit: photobleaching; for mammalian cell photostability t50%: time to bleach 50% from an initial emission rate of 1,000 photons per s. How it is done:
PC3 cells were transfected with 2 μg of circular DNA+5 μl Lipofectamine 2000 (Life Technologies) in 2 ml Opti-MEM (Life Technologies) for 4-5 h, transfection media was discarded, prewarmed growth media was added, and protein was produced for 48 h. 25 μM BV or 1 μM BVMe2 was incubated for 4 h. Cells were photobleached with continuous light exposure from a 150 W xenon arc lamp with eGFP EX/EM=495(10)/535(25) nm, tdTomato EX/EM=540(25)/595(50) nm, mCherry EX/EM=580(20)/[…] nm, and smURFP EX/EM=628(40)/680(30) nm focused with a 40×, 1.2 numerical aperture C-Apochromat oil-immersion lens on aZeiss Axiovert 200M inverted microscope. Photobleaching times were normalized to reflect an initial illumination intensity producing 1,000 photons per fluorescent molecule per second as previously described^37. Data was fit to a single exponential decay (F=A [exp^−kt]), where F is fluorescence that varies as a function of time, A is the fit normalized, initial fluorescence (should be 1), k is the rate of fluorescence decay (photobleaching), and t is time in s, or a double exponential decay (F=A1[exp^−k1^t]+A2[exp^−k2^t]), where F is fluorescence that varies as a function of time, A1 and A2 are the fit normalized, initial fluorescence (sum should be 1), k1 and k2 are the rates of fluorescence decay (photobleaching), and t is time in seconds, and data is shown in Table 6.

The subject of data set [2] is HEK293A cells. Nature of the data set: Fluorescence imaging of FPs in HEK293A cells with chromophore addition or HO-1 expression. The format is cell-based. The text has this: smURFP codons were optimized for human cell expression, and the gene was created by GenScript. smURFP, TDsmURFP (created from mammalian-optimized smURFP), IFP1.4 (mammalian-optimized form^35), IFP2.0 (mammalian-optimized form^46), and iRFP713 (mammalian-optimized form^36) were PCR amplified using Phusion High-Fidelity DNA Polymerase (NEB) with primers containing 5′ HindIII and 3′ XhoI restriction enzyme sites. HindIII-HF and XhoI (NEB)-digested PCR fragments were gel purified (Zymoclean Gel DNA Recovery Kit) and were ligated (T4 DNA Ligase, Life Technologies) into a similarly digested pCDNA3-IRES-eGFP vector (bicistronic to express two FPs in the same cell). For creation of HO-1-expressing mammalian vec-tors, the Synechocystis HO-1 was used, and the codons were not optimized for mammalian expression. Synechocystis HO-1 was directly amplified from the pBAD vector using primers containing 5′ BsiWI and 3′ XbaI restriction enzyme sites. pCDNA3 smURFP, TDsmURFP, IFP1.4, IFP2.0, or iRFP713-IRES-eGFP vectors were digested with BsiWI and XbaI (NEB), dephosphorylated (SAP, Roche), gel purified (Zymoclean Gel DNA Recovery Kit), and ligated (T4 DNA Ligase, Life Technologies) with similarly digested, purified HO-1 PCR fragment. For creation of smURFP fusions, smURFP was PCR amplified using Phusion High-Fidelity DNA Polymerase (NEB) with primers containing 5′ AgeI and 3′ NotI restriction enzyme sites for N-terminal fusions or with primers containing 5′ AgeI and 3′ BspEI restriction enzyme sites for C-terminal fusions. mGeos2-VEL-ManII-N-10 (Addgene 57551) and Dronpa-PDHA1-N-10 (Addgene 57292) vectors were digested with AgeI and NotI (NEB) and mCherry-αTubulin-C-18 (Addgene 55148) and tdTomato-LaminB1-10 (Addgene 58107) were digested with AgeI and BspEI, dephosphorylated (SAP, Roche), gel purified (Zymoclean Gel DNA Recovery Kit), and ligated (T4 DNA Ligase, Life Technologies) with similarly digested, purified smURFP PCR fragment. HEK293A (Invitrogen, Life Technologies), HT1080 (ATCC), and PC3 (ATCC) cells were grown in Dulbecco's Modified Eagle's medium (DMEM, Corning), supplemented with 10% FBS (Atlanta Biologicals)+1×penicillin—streptomycin (Fisher Scientific), which is referred to as growth media, on poly-D-lysine-coated glass-bottom culture dishes (MatTek, No. P35G-0-14-C). The HEK cell line is listed in the ICLAC and NCBI biosample databases and is commonly misidentified as the HeLa cell line. For expression of exogenous fluorescent proteins, there is no problem if there is a contaminating cell line because no endogenous biology or therapeutic results are being determined. HEK293A cells were purchased from Invitrogen (Life Technologies), and all experiments are derived from the same expanded frozen stock without cell line authentication or mycoplasma detection. Cells were transfected using 2 μg of circular DNA+5 μl Lipofectamine 2000 (Life Technologies) in 2 ml Opti-MEM (Life Technologies) for 4-5 h, transfection media was discarded, and prewarmed growth media was added. Chromophores (5 mM in DMSO) were added at indicated concentrations to growth media, warmed for 10-15 min at 37° C., and added to cells. For multiple timepoints, incubations were staggered to maintain equivalent incubation. Prior to imaging, cells were washed 1×2 ml growth media, 2×2 ml imaging solution, and imaged in 2 ml imaging solution. Fluorescence imaging was performed on a Zeiss Axiovert 200M inverted microscope controlled by SlideBook software. FPs were imaged with the following settings: eGFP, EX/EM=495(10)/535(25) nm, tdTomato EX/EM=540(25)/595(50) nm; mCherry and mCardinal, EX/EM=580(20)/653(95) nm; smURFP and TDsmURFP, EX/EX=628(40)/680(30) nm; and IFP1.4, IFP2.0, and iRFP713, EX/EM=665(45)/725(50) nm. […]

Data set [3] is described as follows: Native PAGE quaternary structure / stoichiometry. The format is physicochemical. The following applies: for stoichiometry: Table 5. How it is done:
Native PAGE was run using NativePAGE Novex Bis-Tris Gel System (Life Technologies) on Native PAGE 4-16% Bis-Tris protein gels (Life Technologies). SDS-denaturing PAGE was run using NuPAGE MOPS SDS running buffer (Life Technologies) and NuPAGE Novex 4-12% Bis-Tris gels (Life Technologies). Precision Plus Protein Dual Color Standards (Bio-Rad) were used as an MW ladder. Zinc blot was performed after running the SDS-PAGE gel using the described method^44. Fluorescence was imaged using a BioSpectrum AC Imaging System (UVP) with EX/EM=535(45)/605(70) nm for tdTomato, EX/EM=650(13)/690(50) nm for smURFP and TDsmURFP, EX/EM=685(40)/710LP nm for IFP1.4 and BV+zinc.

B1: smURFP: small ultra-red fluorescent protein, SEQ ID NO: 13, homodimer, covalently attaches biliverdin (protein)
chain: MKTSEQRVNIATLLTENKKKIVDKASQDLWRRHPDLIAPGGIAFSQRDRALCLRDYGWFLHLITFCLLAGDKGPIESIGLISIREMYNSLGVPVPAMMESIRCLKEASLSLLDEEDANETAPYFDYIIKAMS
modifications: homodimer; biliverdin chromophore; smRUFP Variant Polypeptide
Consider B1, for which, in data set [1], the “t50%, time to bleach for 50% emission intensity” value was 410 s; the “A1, Double Exportential Decay Fit” value was determined as 0.23; the “A2, Double Exportential Decay Fit” value amounted to 0.72; the “A, Single Exponential Decay Fit” value is 0.75. In data set [1], the “k1, Double Exportential Decay Fit” value was 0.00024 s⁻¹; the “k2, Double Exportential Decay Fit” value is 0.0022 s⁻¹; the “k, Single Exponential Decay Fit” value was 0.0008 s⁻¹; the “mammalian cell photostability t50%” value was found to be 570 s. The “average time to bleach 50% emission, t50%” value in data set [1] (with BV, mammalian cells (n=5)) was 570 s. Besides, the “average time to bleach 50% emission, t50%” value in data set [1] (with BVMe2, mammalian cells (n=5)) is 340 s. The “brightness in cell culture compared with other FPs” value in data set [2] was “comparable brightness to eGFP and is brighter than mCherry, mCardinal, IFP1.4, IFP2.0, and iRFP713”. For the same molecule, in data set [2] (HEK293A cells), the “fold increase in fluorescence with HO-1+5-ALA+FeSO4” value was found to be 7.7 fold and the “fold increase in fluorescence with expression of HO-1” value is recorded as 2.8 fold. Further, in data set [2] (HEK293A cells, 3 h), the “fold increase in fluorescence with 25 μM BV” value is listed as 4.7 fold, the “fold increase in fluorescence with 25 μM BVMe2 relative to 25 μM BV” value is 18 fold and the “fold increase in fluorescence with 25 μM PCB relative to 25 μM BV” value worked out at 10 fold. In addition, in data set [2] (HEK293A cells, in the presence of BVMe2), the “fluorescence relative to eGFP expressed from IRES” value is “five-fold greater fluorescence”. Further, in data set [3], the “quaternary structure on native gel” value is listed as “homodimer” and the stoichiometry result is given as “Dimer”.

B2: smURFP + BVMe2: smURFP with a single biliverdin dimethyl ester chromophore (protein)
chain: MKTSEQRVNIATLLTENKKKIVDKASQDLWRRHPDLIAPGGIAFSQRDRALCLRDYGWFLHLITFCLLAGDKGPIESIGLISIREMYNSLGVPVPAMMESIRCLKEASLSLLDEEDANETAPYFDYIIKAMS
modifications: left off: small tags and cut ends
notes: smURFP with a single biliverdin dimethyl ester chromophore
For B2, in data set [1], the “t50%, time to bleach for 50% emission intensity” value amounted to 190 s; the “A1, Double Exportential Decay Fit” value is on record as 0.42; the “A2, Double Exportential Decay Fit” value is 0.57; the “A, Single Exponential Decay Fit” value stood at 0.73. For the same molecule, in data set [1], the “k1, Double Exportential Decay Fit” value is 0.020 s⁻¹; the “k2, Double Exportential Decay Fit” value was determined as 0.0012 s⁻¹; the “k, Single Exponential Decay Fit” value came to 0.0015 s⁻¹; the “mammalian cell photostability t50%” value was 340 s. Further, in data set [2] (HEK293A cells), the “fold brighter than IFP2.0 or iRFP713” value worked out at 7 fold. For the same molecule, the “fold increase in fluorescence relative to smURFP” value in data set [2] (HEK293A cells, chromophore incubation 3 h) was more than 32 fold. In addition, in data set [3], the stoichiometry result is recorded as “Dimer”.
